Source: patent US20240116985A1 (published 2024)
Starred links: 1 amine or outer side, 2 acyl side, 3 side chain; linkers in the order of their positions; H or OH if unused. Positions of bridges follow the written chain, without caps; N, C: chain ends. Non-standard residues stand in square brackets, D forms with d. Primed or numbered codes have the meaning given here. B5(10) = 2-amino-2-(pent-4-en-1-yl)hept-6-enoic acid, bis(4-pentenyl)glycine, stitching residue bearing both staples, C=CCCCC(CCCC=C)(N[*:1])C(=O)[*:2]; PyrS2″ = (S)-3-amino-1-((pent-4-en-1-yloxy)carbonyl)pyrrolidine-3-carboxylic acid (stapling residue), C=CCCCOC(=O)N1CC[C@@](N[*:1])(C(=O)[*:2])C1; B5(5) = 2,2-bis(4-pentenyl)glycine, 2-amino-2-(pent-4-en-1-yl)hept-6-enoic acid (stitching residue), C=CCCCC(CCCC=C)(N[*:1])C(=O)[*:2]; PyrS2 = (S)-3-amino-1-((pent-4-en-1-yloxy)carbonyl)pyrrolidine-3-carboxylic acid, C=CCCCOC(=O)N1CC[C@@](N[*:1])(C(=O)[*:2])C1; Phe(2-Cl) = N[C@@H](Cc1ccccc1Cl)C(=O)O; Bta = N[C@@H](Cc1csc2ccccc12)C(=O)O; Lys(iPr) = CC(C)NCCCC[C@H](N)C(=O)O; αAllylPro = C=CC[C@@]1(C(=O)O)CCCN1; tBuAla = CC(C)(C)C[C@H](N)C(=O)O

T1: B-cat-Halo (UniProt P35222 1-781)
T1 sequence (looked up): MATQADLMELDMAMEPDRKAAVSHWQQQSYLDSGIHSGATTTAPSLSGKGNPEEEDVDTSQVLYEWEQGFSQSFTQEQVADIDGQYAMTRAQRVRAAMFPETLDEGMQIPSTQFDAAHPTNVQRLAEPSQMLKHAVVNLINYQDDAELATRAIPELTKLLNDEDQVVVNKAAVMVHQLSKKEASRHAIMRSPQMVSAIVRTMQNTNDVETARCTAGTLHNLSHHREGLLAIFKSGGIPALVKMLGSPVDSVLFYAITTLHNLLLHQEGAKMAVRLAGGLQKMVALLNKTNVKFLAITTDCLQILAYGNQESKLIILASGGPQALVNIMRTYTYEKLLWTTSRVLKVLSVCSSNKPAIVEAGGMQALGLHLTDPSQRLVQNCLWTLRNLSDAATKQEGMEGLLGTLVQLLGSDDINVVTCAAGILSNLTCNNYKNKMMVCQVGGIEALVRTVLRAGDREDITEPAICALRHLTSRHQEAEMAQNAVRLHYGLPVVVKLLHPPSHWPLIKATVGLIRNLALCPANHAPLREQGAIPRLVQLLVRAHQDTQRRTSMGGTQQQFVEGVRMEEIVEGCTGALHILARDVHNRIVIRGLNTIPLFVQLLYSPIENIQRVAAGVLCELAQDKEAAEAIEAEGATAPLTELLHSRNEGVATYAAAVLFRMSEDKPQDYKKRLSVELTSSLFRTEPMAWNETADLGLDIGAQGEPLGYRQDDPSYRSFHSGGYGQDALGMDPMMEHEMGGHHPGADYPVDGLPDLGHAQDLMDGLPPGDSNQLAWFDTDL


Molecular target: T1, B-cat-Halo
Test: cell-based or functional assay

Binder	NanoBRET Abs IC50 [µM]
Ac-[αAllylPro]D[tBuAla][B5(5)]DDAAF[Lys(iPr)][PyrS2][Phe(2-Cl)][Bta]Q-NH2 (staple 1-4, 4-11; not fully specified; printed as Ac-PL3-Asp-Npg-B5-Asp-Asp-Ala-Ala-Phe-iPrLys-PyrS2-2C1F-BztA-Gln-NH2) [I-1278]	18
Ac-[αAllylPro]D[tBuAla][B5(5)]DD[Lys(iPr)]AFL[PyrS2″][Phe(2-Cl)][Bta]Q-NH2 (staple 1-4; staple 4-11 (inferred); not fully specified; printed as Ac-PL3-Asp-Npg-B5-Asp-Asp-iPrLys-Ala-Phe-Leu-PyrS2-2C1F-BztA-Gln-NH2) [I-1275]	27.8
Ac-[αAllylPro]D[tBuAla][B5(10)]DDAAF[Lys(iPr)][PyrS2][Phe(2-Cl)][Bta]L-NH2 (staple 1-4, 4-11) [I-1280]	24.7
Ac-[αAllylPro]D[tBuAla][B5(5)]DD[Lys(iPr)]AFL[PyrS2″][Phe(2-Cl)][Bta]T-NH2 (staple 1-4; staple 4-11 (inferred); not fully specified; printed as Ac-PL3-Asp-Npg-B5-Asp-Asp-iPrLys-Ala-Phe-Leu-PyrS2-2C1F-BztA-Thr-NH2) [I-1276]	> 20
Ac-[αAllylPro]D[tBuAla][B5(5)]DD[Lys(iPr)]AFL[PyrS2][Phe(2-Cl)][Bta]L-NH2 (staple 1-4, 4-11; not fully specified; printed as Ac-PL3-Asp-Npg-B5-Asp-Asp-iPrLys-Ala-Phe-Leu-PyrS2-2C1F-BztA-Leu-NH2) [I-1277]	> 20
Ac-[αAllylPro]D[tBuAla][B5(5)]DD[Lys(iPr)]AFT[PyrS2″][Phe(2-Cl)][Bta]T-NH2 (staple 1-4; staple 4-11 (inferred); not fully specified; printed as Ac-PL3-Asp-Npg-B5-Asp-Asp-iPrLys-Ala-Phe-Thr-PyrS2-2C1F-BztA-Thr-NH2) [I-1273]	> 20
Ac-[αAllylPro]D[tBuAla][B5(5)]DD[Lys(iPr)]AFT[PyrS2″][Phe(2-Cl)][Bta]L-NH2 (staple 1-4; staple 4-11 (inferred); not fully specified; printed as Ac-PL3-Asp-Npg-B5-Asp-Asp-iPrLys-Ala-Phe-Thr-PyrS2-2C1F-BztA-Leu-NH2) [I-1274]	> 20
Ac-[αAllylPro]D[tBuAla][B5(10)]DDAAF[Lys(iPr)][PyrS2][Phe(2-Cl)][Bta]T-NH2 (staple 1-4, 4-11) [I-1279]	22.9
